Experimental data from article PMC10126545.

Biological target: COBRA P1 HA ectodomain, insect-cell expressed, Foldon and tags removed by thrombin
Assay: SEC; Superdex 200 16/600 in 50 mM NaCl, 10 mM Tris pH 7.5, after thrombin digestion that removed the Foldon and tags

Work on “COBRA P1 HA ectodomain, insect-cell expressed, Foldon and tags removed by thrombin” yielded a stoichiometry N of 3.
